In paper PMC7232488:

What was measured:
[1] = system: Δ1 SP1 Gag (HIV-1 (isolate BH10)); test: MST
[2] = system: WM Gag (HIV-1 (isolate BH10)); test: MST
[3] = target: Gag (Human immunodeficiency virus 1) (UniProt O93182); conditions: cited from earlier work

Gag, sequence (O93182 2-500): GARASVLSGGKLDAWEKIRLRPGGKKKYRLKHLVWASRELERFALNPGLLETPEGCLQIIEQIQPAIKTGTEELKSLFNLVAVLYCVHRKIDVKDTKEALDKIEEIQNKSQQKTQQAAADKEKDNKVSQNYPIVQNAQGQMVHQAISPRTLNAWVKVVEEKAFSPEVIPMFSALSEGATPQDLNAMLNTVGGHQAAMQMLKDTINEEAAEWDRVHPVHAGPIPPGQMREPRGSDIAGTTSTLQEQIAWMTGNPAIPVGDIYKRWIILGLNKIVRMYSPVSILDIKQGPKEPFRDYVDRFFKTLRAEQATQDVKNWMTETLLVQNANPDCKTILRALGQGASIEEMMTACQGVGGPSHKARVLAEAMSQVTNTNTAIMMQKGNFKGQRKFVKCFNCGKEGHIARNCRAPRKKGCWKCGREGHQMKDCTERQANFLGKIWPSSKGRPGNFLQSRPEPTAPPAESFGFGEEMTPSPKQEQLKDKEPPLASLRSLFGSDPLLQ

## reverse complement RNA (non-Ψ control)
[1]
  binding signal (fold difference vs WT Gag): 2

## Ψ RNA
[1]
  binding signal (fold difference vs WT Gag): 2
[2]
  binding signal (fold decrease in affinity vs WT Gag): 3.5

## Gag (from UniProt O93182)
[3]
  Kd: 5.5 µM
